Reference: PMC3750081

B1: p53 codon 248 5'-MeC O6-POB-G (dsDNA)
DNA 1: CATGAACCGGAGGCCCATC
DNA 2: GATGGGCCTCCGGTTCATG
modifications: O6-POB-dG at strand 1 position 9; 5-methyl-C at strand 1 position 8
B2: p53 codon 248 O6-POB-G:MeC base pair (dsDNA)
DNA 1: CATGAACCGGAGGCCCATC
DNA 2: GATGGGCCTCCGGTTCATG
modifications: O6-POB-dG at strand 1 position 9; 5-methyl-C at strand 2 position 11
B3: p53 codon 248 both MeC O6-POB-G (dsDNA)
DNA 1: CATGAACCGGAGGCCCATC
DNA 2: GATGGGCCTCCGGTTCATG
modifications: O6-POB-dG at strand 1 position 9; 5-methyl-C at strand 1 position 8 and strand 2 position 11
B4: p53 codon 248 O6-POB-G (dsDNA)
DNA 1: CATGAACCGGAGGCCCATC
DNA 2: GATGGGCCTCCGGTTCATG
modifications: O6-POB-dG at strand 1 position 9
B5: p53 codon 158 5'-MeC O6-POB-G (dsDNA)
DNA 1: ACCCGCGTCCGCGCCATGGCC
DNA 2: GGCCATGGCGCGGACGCGGGT
modifications: O6-POB-dG at strand 1 position 11; 5-methyl-C at strand 1 position 10 (text; Table 4 marks lost)

These binders were tested against AGT (O6-alkylguanine-DNA alkyltransferase) C145A (Homo sapiens, UniProt P16455 1-207, C145A) (assay: EMSA).
AGT (O6-alkylguanine-DNA alkyltransferase) C145A, sequence (P16455 whole entry C145A): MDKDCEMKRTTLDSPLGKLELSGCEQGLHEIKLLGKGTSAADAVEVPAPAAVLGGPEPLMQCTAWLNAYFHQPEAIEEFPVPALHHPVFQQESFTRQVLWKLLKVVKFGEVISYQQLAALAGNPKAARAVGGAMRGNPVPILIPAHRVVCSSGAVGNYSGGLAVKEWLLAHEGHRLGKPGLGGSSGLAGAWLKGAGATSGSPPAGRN
B1 was tested, and the Kd was 2 ± 0.2 µM. Work on B2 yielded a Kd of 1.8 ± 0.3 µM. B3 was tested, and the Kd was 1 ± 0.1 µM. B4 was tested, and the Kd was 2.2 µM. B5 showed a Kd of 4.8 ± 0.5 µM.
